Data taken from paper doi:10.1101/2024.03.08.584184.

Molecular target: cGAS (Homo sapiens, UniProt Q8N884 1-522)
Assay: EMSA

Chain of cGAS (Q8N884 whole entry): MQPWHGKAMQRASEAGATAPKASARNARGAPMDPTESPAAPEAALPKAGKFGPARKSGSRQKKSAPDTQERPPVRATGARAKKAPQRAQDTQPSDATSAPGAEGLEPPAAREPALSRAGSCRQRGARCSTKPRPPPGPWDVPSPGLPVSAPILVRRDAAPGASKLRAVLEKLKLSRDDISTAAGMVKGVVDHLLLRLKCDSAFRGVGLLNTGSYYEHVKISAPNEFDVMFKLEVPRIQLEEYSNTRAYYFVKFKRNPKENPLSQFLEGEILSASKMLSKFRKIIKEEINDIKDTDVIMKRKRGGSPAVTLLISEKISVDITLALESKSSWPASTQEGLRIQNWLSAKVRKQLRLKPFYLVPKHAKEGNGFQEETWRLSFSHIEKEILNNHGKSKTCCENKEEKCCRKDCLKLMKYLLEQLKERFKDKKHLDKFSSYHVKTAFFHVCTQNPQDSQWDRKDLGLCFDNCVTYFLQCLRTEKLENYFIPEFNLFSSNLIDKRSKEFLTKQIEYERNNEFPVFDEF

B1: 70bp Oligo 2 (dsDNA)
DNA 1: GGCAAGCAGGCCTTCTCATGCGTATATCAACGTGTCCGTTTGAGATATCAGTGTTCTCTTTCCCGGTTAA
DNA 2: TTAACCGGGAAAGAGAACACTGATATCTCAAACGGACACGTTGATATACGCATGAGAAGGCCTGCTTGCC
B1: binds.
